According to patent US20160272683A1 (Novo Nordisk, published 2016):
Numbered stars: 1 amine (or outer) side, 2 acyl side, 3 side chain; on linkers, the order of the positions; unused ones are H or OH. Side chains are listed from the residue outwards. Ends that are not written are not given here. * marks the point of attachment. C20 diacid = O=C(O)CCCCCCCCCCCCCCCCCCC(=O)*; C18 diacid = O=C(O)CCCCCCCCCCCCCCCCC(=O)*; C16 diacid = O=C(O)CCCCCCCCCCCCCCC(=O)*; γGlu = O=C(O)[C@H](CCC(=O)[*:2])N[*:1]; C14 diacid = O=C(O)CCCCCCCCCCCCC(=O)*; AEEA = NCCOCCOCC(=O)O

T1: human amylin receptor (amylin 3(a) receptor: human calcitonin receptor with RAMP-3) (human, UniProt P30988 25-474; O60896 24-148, limits assumed)
T1 construct: whole, on cells; Assay V: membranes of the Amylin 3(a)/CRE-luc BHK cells on SPA beads; also called hAmylin-R
T1 sequence (looked up) 1: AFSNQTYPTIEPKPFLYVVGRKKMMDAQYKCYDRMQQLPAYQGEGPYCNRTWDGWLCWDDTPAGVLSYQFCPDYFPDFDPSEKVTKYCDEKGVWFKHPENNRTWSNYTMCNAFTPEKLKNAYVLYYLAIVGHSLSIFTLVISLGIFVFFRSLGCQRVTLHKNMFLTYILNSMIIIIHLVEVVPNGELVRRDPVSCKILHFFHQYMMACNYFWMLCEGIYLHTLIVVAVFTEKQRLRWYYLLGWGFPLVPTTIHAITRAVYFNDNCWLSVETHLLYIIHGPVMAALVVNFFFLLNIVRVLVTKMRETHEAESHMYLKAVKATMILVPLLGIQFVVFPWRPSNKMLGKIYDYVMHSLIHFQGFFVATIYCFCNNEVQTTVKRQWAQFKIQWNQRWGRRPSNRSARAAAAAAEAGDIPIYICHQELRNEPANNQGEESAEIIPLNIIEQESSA
T1 sequence (looked up) 2: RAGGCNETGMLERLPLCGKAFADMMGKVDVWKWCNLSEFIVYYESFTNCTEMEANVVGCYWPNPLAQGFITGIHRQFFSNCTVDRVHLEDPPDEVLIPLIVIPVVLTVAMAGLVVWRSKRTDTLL

T2: human calcitonin receptor (human, UniProt P30988 25-474)
T2 construct: whole, on cells; Assay VII: membranes on SPA beads; also called hCT-R; hCTR
T2 sequence (looked up): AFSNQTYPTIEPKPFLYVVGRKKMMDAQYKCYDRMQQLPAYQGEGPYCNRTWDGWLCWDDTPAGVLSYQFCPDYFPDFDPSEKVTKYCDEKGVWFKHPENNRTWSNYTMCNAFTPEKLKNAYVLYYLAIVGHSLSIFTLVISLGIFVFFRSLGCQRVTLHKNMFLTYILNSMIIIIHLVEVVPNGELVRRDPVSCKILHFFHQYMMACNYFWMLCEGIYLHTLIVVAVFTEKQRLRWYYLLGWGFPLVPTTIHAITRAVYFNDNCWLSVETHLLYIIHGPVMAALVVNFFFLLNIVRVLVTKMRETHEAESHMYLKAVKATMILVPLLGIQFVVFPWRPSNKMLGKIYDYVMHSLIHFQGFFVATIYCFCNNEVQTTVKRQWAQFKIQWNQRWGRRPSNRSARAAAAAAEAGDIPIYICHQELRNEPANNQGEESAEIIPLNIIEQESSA


Assays:
[1] = target: rat amylin receptor (rat calcitonin receptor with rat RAMP 3) (rat) (UniProt P32214); assay: SPA competition vs 125I-rat amylin, membranes with rat CTR + rat RAMP3 (Assay VI)
[2] = target: T1, human amylin receptor (amylin 3(a) …); assay: SPA competition vs 125I-rat amylin, membranes with human CTR + RAMP-3 (Assay V)
[3] = target: T2, human calcitonin receptor; assay: SPA competition vs 125I-calcitonin, membranes with human CTR (Assay VII)
Summary of the method: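 SPA competition on membranes from BHK tk'ts 13 cells stably expressing human calcitonin receptor plus CRE-luciferase reporter; membranes 35 ng/μL final with 0.05 mg/well beads.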

[4] = target: rat calcitonin receptor (rat) (UniProt P32214); assay: SPA competition vs 125I-calcitonin, membranes with rat CTR (Assay VIII)

IC50 [1]	IC50 [2]	IC50 [3]	IC50 [4]	Molecule
0.029 nM				[N-terminal(C20 diacid-gGlu-2xOEG), des1, 4G, 9V, 15Q, 21Q, 23Y, 30S, 31G, 32T, 33Y]mimylin (peptide)
0.045 nM			0.069 nM	{C20 diacid-γGlu}-ASELSTATLGRLSAELHELSTYPRTETGSGSY-NH2 (SMILES CC(C)C[C@H](NC(=O)[C@H](CCCNC(=N)N)NC(=O)CNC(=O)[C@H](CC(C)C)NC(=O)[C@@H](NC(=O)[C@H](C)NC(=O)[C@@H](NC(=O)[C@H](CO)NC(=O)[C@H](CC(C)C)NC(=O)[C@H](CCC(=O)O)NC(=O)[C@H](CO)NC(=O)[C@H](C)NC(=O)CC[C@H](NC(=O)CCCCCCCCCCCCCCCCCCC(=O)O)C(=O)O)[C@@H](C)O)[C@@H](C)O)C(=O)N[C@@H](CO)C(=O)N[C@@H](C)C(=O)N[C@@H](CCC(=O)O)C(=O)N[C@@H](CC(C)C)C(=O)N[C@@H](Cc1c[nH]cn1)C(=O)N[C@@H](CCC(=O)O)C(=O)N[C@@H](CC(C)C)C(=O)N[C@@H](CO)C(=O)N[C@H](C(=O)N[C@@H](Cc1ccc(O)cc1)C(=O)N1CCC[C@H]1C(=O)N[C@@H](CCCNC(=N)N)C(=O)N[C@H](C(=O)N[C@@H](CCC(=O)O)C(=O)N[C@H](C(=O)NCC(=O)N[C@@H](CO)C(=O)NCC(=O)N[C@@H](CO)C(=O)N[C@@H](Cc1ccc(O)cc1)C(N)=O)[C@@H](C)O)[C@@H](C)O)[C@@H](C)O) [[N-terminal(C20 diacid-gGlu), des1, 9T, 21S, 23Y, 30S, 31G, 33Y]mimylin]
			0.114 nM	ASK([γGlu-C20 diacid])LSTAALGRLSAELHELATLPRTETGSGSP-NH2 (N-terminus assumed; SMILES CC(C)C[C@H](NC(=O)[C@H](C)NC(=O)[C@H](C)NC(=O)[C@@H](NC(=O)[C@H](CO)NC(=O)[C@H](CC(C)C)NC(=O)[C@H](CCCCNC(=O)CC[C@H](NC(=O)CCCCCCCCCCCCCCCCCCC(=O)O)C(=O)O)NC(=O)[C@H](CO)NC(=O)[C@H](C)N)[C@@H](C)O)C(=O)NCC(=O)N[C@@H](CCCNC(=N)N)C(=O)N[C@@H](CC(C)C)C(=O)N[C@@H](CO)C(=O)N[C@@H](C)C(=O)N[C@@H](CCC(=O)O)C(=O)N[C@@H](CC(C)C)C(=O)N[C@@H](Cc1c[nH]cn1)C(=O)N[C@@H](CCC(=O)O)C(=O)N[C@@H](CC(C)C)C(=O)N[C@@H](C)C(=O)N[C@H](C(=O)N[C@@H](CC(C)C)C(=O)N1CCC[C@H]1C(=O)N[C@@H](CCCNC(=N)N)C(=O)N[C@H](C(=O)N[C@@H](CCC(=O)O)C(=O)N[C@H](C(=O)NCC(=O)N[C@@H](CO)C(=O)NCC(=O)N[C@@H](CO)C(=O)N1CCC[C@H]1C(N)=O)[C@@H](C)O)[C@@H](C)O)[C@@H](C)O) [[des1, 4K(C20 diacid-gGlu), 30S, 31G]mimylin]
0.146 nM			0.044 nM	{C20 diacid-γGlu-AEEA}-ASELSTAALGRLSAELHELATLPRTETGSGSP-NH2 [[N-terminal(C20 diacid-gGlu-OEG), des1, 30S, 31G]mimylin]

Further lines, the molecule ahead of its results:

Molecule	IC50 [1]	IC50 [2]	IC50 [3]	IC50 [4]
{C14 diacid}-ASELSTAALGRLSAELHELATLPRTETGSGSP-NH2 (mimylin derivative; des1 = residue 1 deleted; also called Ex. #51; 51)		0.773 nM	0.14 nM	
{C20 diacid-γGlu}-ASGLSTAVLGRLSQELHELQTYPRTETGSQTY-NH2 (SMILES CC(C)C[C@H](NC(=O)CNC(=O)[C@H](CO)NC(=O)[C@H](C)NC(=O)CC[C@H](NC(=O)CCCCCCCCCCCCCCCCCCC(=O)O)C(=O)O)C(=O)N[C@@H](CO)C(=O)N[C@H](C(=O)N[C@@H](C)C(=O)N[C@H](C(=O)N[C@@H](CC(C)C)C(=O)NCC(=O)N[C@@H](CCCNC(=N)N)C(=O)N[C@@H](CC(C)C)C(=O)N[C@@H](CO)C(=O)N[C@@H](CCC(N)=O)C(=O)N[C@@H](CCC(=O)O)C(=O)N[C@@H](CC(C)C)C(=O)N[C@@H](Cc1c[nH]cn1)C(=O)N[C@@H](CCC(=O)O)C(=O)N[C@@H](CC(C)C)C(=O)N[C@@H](CCC(N)=O)C(=O)N[C@H](C(=O)N[C@@H](Cc1ccc(O)cc1)C(=O)N1CCC[C@H]1C(=O)N[C@@H](CCCNC(=N)N)C(=O)N[C@H](C(=O)N[C@@H](CCC(=O)O)C(=O)N[C@H](C(=O)NCC(=O)N[C@@H](CO)C(=O)N[C@@H](CCC(N)=O)C(=O)N[C@H](C(=O)N[C@@H](Cc1ccc(O)cc1)C(N)=O)[C@@H](C)O)[C@@H](C)O)[C@@H](C)O)[C@@H](C)O)C(C)C)[C@@H](C)O) [[N-terminal(C20 diacid-gGlu), des1, 4G, 9V, 15Q, 21Q, 23Y, 30S, 31Q, 32T, 33Y]mimylin]	0.053 nM			0.016 nM
{C20 diacid-γGlu}-AASELSTAALGRLSAELHELATYPRTETGSGSP-NH2 (SMILES CC(C)C[C@H](NC(=O)[C@H](C)NC(=O)[C@H](C)NC(=O)[C@@H](NC(=O)[C@H](CO)NC(=O)[C@H](CC(C)C)NC(=O)[C@H](CCC(=O)O)NC(=O)[C@H](CO)NC(=O)[C@H](C)NC(=O)[C@H](C)NC(=O)CC[C@H](NC(=O)CCCCCCCCCCCCCCCCCCC(=O)O)C(=O)O)[C@@H](C)O)C(=O)NCC(=O)N[C@@H](CCCNC(=N)N)C(=O)N[C@@H](CC(C)C)C(=O)N[C@@H](CO)C(=O)N[C@@H](C)C(=O)N[C@@H](CCC(=O)O)C(=O)N[C@@H](CC(C)C)C(=O)N[C@@H](Cc1c[nH]cn1)C(=O)N[C@@H](CCC(=O)O)C(=O)N[C@@H](CC(C)C)C(=O)N[C@@H](C)C(=O)N[C@H](C(=O)N[C@@H](Cc1ccc(O)cc1)C(=O)N1CCC[C@H]1C(=O)N[C@@H](CCCNC(=N)N)C(=O)N[C@H](C(=O)N[C@@H](CCC(=O)O)C(=O)N[C@H](C(=O)NCC(=O)N[C@@H](CO)C(=O)NCC(=O)N[C@@H](CO)C(=O)N1CCC[C@H]1C(N)=O)[C@@H](C)O)[C@@H](C)O)[C@@H](C)O, mimylin derivative; also called Ex. #57; 57) [[N-terminal(C20 diacid-gGlu), 1A, 23Y, 30S, 31G]mimylin]		0.124 nM	0.108 nM	
{C16 diacid}-ASELSTAALGRLSAELHELATLPRTETGSGSP-NH2 (mimylin derivative; des1 = residue 1 deleted; also called Ex. #49; 49) [[N-terminal(C16 diacid), des1, 30S, 31G]mimylin]		0.015 nM	0.011 nM	
{C20 diacid-γGlu}-ASGLSTAALGRLSQELHELQTYPRTETGSQTY-NH2 (SMILES CC(C)C[C@H](NC(=O)CNC(=O)[C@H](CO)NC(=O)[C@H](C)NC(=O)CC[C@H](NC(=O)CCCCCCCCCCCCCCCCCCC(=O)O)C(=O)O)C(=O)N[C@@H](CO)C(=O)N[C@H](C(=O)N[C@@H](C)C(=O)N[C@@H](C)C(=O)N[C@@H](CC(C)C)C(=O)NCC(=O)N[C@@H](CCCNC(=N)N)C(=O)N[C@@H](CC(C)C)C(=O)N[C@@H](CO)C(=O)N[C@@H](CCC(N)=O)C(=O)N[C@@H](CCC(=O)O)C(=O)N[C@@H](CC(C)C)C(=O)N[C@@H](Cc1c[nH]cn1)C(=O)N[C@@H](CCC(=O)O)C(=O)N[C@@H](CC(C)C)C(=O)N[C@@H](CCC(N)=O)C(=O)N[C@H](C(=O)N[C@@H](Cc1ccc(O)cc1)C(=O)N1CCC[C@H]1C(=O)N[C@@H](CCCNC(=N)N)C(=O)N[C@H](C(=O)N[C@@H](CCC(=O)O)C(=O)N[C@H](C(=O)NCC(=O)N[C@@H](CO)C(=O)N[C@@H](CCC(N)=O)C(=O)N[C@H](C(=O)N[C@@H](Cc1ccc(O)cc1)C(N)=O)[C@@H](C)O)[C@@H](C)O)[C@@H](C)O)[C@@H](C)O)[C@@H](C)O) [[N-terminal(C20 diacid-gGlu), des1, 4G, 15Q, 21Q, 23Y, 30S, 31Q, 32T, 33Y]mimylin]	0.078 nM			0.012 nM
{C18 diacid-γGlu}-ASGLSTAALGRLSQELHELQTYPRTETGSGTY-NH2 (SMILES CC(C)C[C@H](NC(=O)CNC(=O)[C@H](CO)NC(=O)[C@H](C)NC(=O)CC[C@H](NC(=O)CCCCCCCCCCCCCCCCC(=O)O)C(=O)O)C(=O)N[C@@H](CO)C(=O)N[C@H](C(=O)N[C@@H](C)C(=O)N[C@@H](C)C(=O)N[C@@H](CC(C)C)C(=O)NCC(=O)N[C@@H](CCCNC(=N)N)C(=O)N[C@@H](CC(C)C)C(=O)N[C@@H](CO)C(=O)N[C@@H](CCC(N)=O)C(=O)N[C@@H](CCC(=O)O)C(=O)N[C@@H](CC(C)C)C(=O)N[C@@H](Cc1c[nH]cn1)C(=O)N[C@@H](CCC(=O)O)C(=O)N[C@@H](CC(C)C)C(=O)N[C@@H](CCC(N)=O)C(=O)N[C@H](C(=O)N[C@@H](Cc1ccc(O)cc1)C(=O)N1CCC[C@H]1C(=O)N[C@@H](CCCNC(=N)N)C(=O)N[C@H](C(=O)N[C@@H](CCC(=O)O)C(=O)N[C@H](C(=O)NCC(=O)N[C@@H](CO)C(=O)NCC(=O)N[C@H](C(=O)N[C@@H](Cc1ccc(O)cc1)C(N)=O)[C@@H](C)O)[C@@H](C)O)[C@@H](C)O)[C@@H](C)O)[C@@H](C)O) [[N-terminal(C18 diacid-gGlu), des1, 4G, 15Q, 21Q, 23Y, 30S, 31G, 32T, 33Y]mimylin]	0.013 nM			0.013 nM
{C14 diacid}-ASELSTAALGRLSAELHELATLPRTETGSGSP-NH2				0.123 nM
{C14 diacid-γGlu}-ASELSTAALGRLSAELHELATLPRTETGSGSP-NH2 (mimylin derivative; des1 = residue 1 deleted; also called Ex. #50; 50) [[N-terminal(C14 diacid-gGlu), des1, 30S, 31G]mimylin]		0.054 nM	0.023 nM	
